Target: yeast TRiC subunit CCT5 (yeast) (UniProt P40413)
Assay: cryo-EM structure

stoichiometry N (subunits (single ring)): 8
Substance: yeast TRiC subunit CCT5 (from UniProt P40413 1-562) (natural protein)

Reference: publication doi:10.1101/2021.02.24.432666
